These results are taken from US20190359693A1 (Janssen / Centocor, published 2019).

What all share (experiment): cell-based or functional assay
In assay [1] the target is HA of H3N2 A/HK/1/68 (E443K) (influenza A virus).
The target in assay [2] is HA of H3N2 A/HK/1/68 (D375N, I395V) (influenza A virus).
The target in assay [3] is HA of H3N2 A/HK/1/68 (I395V) (influenza A virus).
Assay [4] deals with HA of H3N2 A/HK/1/68 (N85, E443K) (influenza A virus).
Assay [5] concerns the target HA of H3N2 A/HK/1/68 (R201G, L331I, E443K) (influenza A virus).
The target of assay [6] is HA of H3N2 A/HK/1/68 (L331I, E443K) (influenza A virus).
Assay [7] deals with HA of H3N2 A/HK/1/68 (G379R) (influenza A virus).
Assay [8] addresses HA of H3N? A/Env/MPJ193/09 (influenza A virus).
For assay [9] the target is unchanged. The source holds these as a separate data set.

Like-named read-outs stand apart in the source and are kept apart here.

B1: SD1046 (VHH)
VHH: EVQLVESGGGLVQAGDSLRISCAASGRTLSIYSMGWFRQAPGKEREFVATIGWNSGRTFYPDSLKGRFTISRDNARNTLYLQMNNLRPEDTAVYYCAAAKGPLRLSSQADYWGQGTQVTVSS
Regarding B1, the VNA titer in assay [1] is 202 nM; in assay [2] it was over 1000 nM; in [3], over 1000 nM; in assay [4] it was 202 nM; in assay [5], 339 nM; in [6] it was 202 nM. Also, in assay [7], the VNA titer came to 571 nM.

B2: SD1038 (VHH)
VHH: EVQLVESGGGLVQPGGSLRLSCAVSISIFDIYAMDWYRQAPGKQRDLVATSFRDGSTNYADSVKGRFTISRDNAKNTLYLQMNSLKPEDTAVYLCHVSLYRDPLGVAGGMGVYWGKGALVTVSS
notes: llama sdAb
In the case of B2, in assay [8], the VNA titer amounted to 185 nM.

B3: SD1036 (VHH)
VHH: EVQLVESGGGLVQAGGSLKLSCAASGRTYAMGWFRQAPGKEREFVAHINALGTRTYYSDSVKGRFTISRDNAKNTEYLEMNNLKPEDTAVYYCTAQGQWRAAPVAVAAEYEFWGQGTQVTVSS
notes: llama sdAb
As for B3, the VNA titer in assay [1] is over 1000 nM; in [2] it was over 1000 nM; in assay [3], over 1000 nM; in [9], 41 nM; in assay [4], over 1000 nM; in [5] it was over 1000 nM. Besides, the VNA titer in [6] and in assay [7] was over 1000 nM in each case.
